Measured values from patent publication US20160200782A1 (MOERAE MATRIX, published 2016).
Values belong to the binder of their own block, whether it stands above or below them.

Assays:
Test in all cases: cell-based or functional assay
Hck(h) = Hck(h) (human, UniProt P08631 251-518, limits assumed)
Src(1-530)(h) = Src(1-530)(h) (human, UniProt P12931 1-530)
PAK6(h) = PAK6(h) (human, UniProt Q9NQU5 1-681, limits assumed)
PASK(h) = PASK(h) (human, UniProt Q96RG2 879-1323, limits assumed)
LOK(h) = LOK(h) (human, UniProt O94804 1-348, limits assumed)
LKB1(h) = target: T1, LKB1(h) (human, UniProt Q15831 1-433, limits assumed)
T1 sequence (looked up): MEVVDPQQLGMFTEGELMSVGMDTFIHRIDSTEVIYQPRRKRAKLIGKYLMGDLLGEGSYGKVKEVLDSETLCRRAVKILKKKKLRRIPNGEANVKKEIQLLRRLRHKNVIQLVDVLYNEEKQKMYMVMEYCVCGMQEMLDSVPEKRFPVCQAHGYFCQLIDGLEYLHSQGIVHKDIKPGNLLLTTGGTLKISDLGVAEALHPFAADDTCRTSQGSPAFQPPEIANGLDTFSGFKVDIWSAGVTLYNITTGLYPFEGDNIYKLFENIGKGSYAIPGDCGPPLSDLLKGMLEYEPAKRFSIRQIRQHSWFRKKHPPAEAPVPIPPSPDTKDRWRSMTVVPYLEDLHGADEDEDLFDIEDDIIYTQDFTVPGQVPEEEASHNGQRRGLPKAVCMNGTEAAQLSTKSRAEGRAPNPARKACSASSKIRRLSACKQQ

PDK1(h) = target: T2, PDK1(h) (human, UniProt O15530 1-556, limits assumed)
T2 sequence (looked up): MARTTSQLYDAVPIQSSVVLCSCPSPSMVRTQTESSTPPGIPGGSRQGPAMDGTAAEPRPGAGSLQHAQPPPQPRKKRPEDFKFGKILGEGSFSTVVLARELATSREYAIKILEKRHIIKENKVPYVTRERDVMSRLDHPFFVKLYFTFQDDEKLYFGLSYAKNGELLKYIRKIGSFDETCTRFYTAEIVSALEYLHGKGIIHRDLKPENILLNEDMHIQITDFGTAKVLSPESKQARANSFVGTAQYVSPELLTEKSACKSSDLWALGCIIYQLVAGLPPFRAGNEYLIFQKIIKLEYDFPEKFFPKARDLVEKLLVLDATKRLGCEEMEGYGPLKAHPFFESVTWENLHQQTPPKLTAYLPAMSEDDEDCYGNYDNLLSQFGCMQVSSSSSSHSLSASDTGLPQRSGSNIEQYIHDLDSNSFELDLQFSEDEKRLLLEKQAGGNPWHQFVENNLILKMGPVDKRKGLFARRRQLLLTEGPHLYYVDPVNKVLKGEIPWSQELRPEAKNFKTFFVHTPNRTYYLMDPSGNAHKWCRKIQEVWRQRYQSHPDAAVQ

MuSK(h) = target: T3, MuSK(h) (human, UniProt O15146 517-869, limits assumed)
T3 sequence (looked up): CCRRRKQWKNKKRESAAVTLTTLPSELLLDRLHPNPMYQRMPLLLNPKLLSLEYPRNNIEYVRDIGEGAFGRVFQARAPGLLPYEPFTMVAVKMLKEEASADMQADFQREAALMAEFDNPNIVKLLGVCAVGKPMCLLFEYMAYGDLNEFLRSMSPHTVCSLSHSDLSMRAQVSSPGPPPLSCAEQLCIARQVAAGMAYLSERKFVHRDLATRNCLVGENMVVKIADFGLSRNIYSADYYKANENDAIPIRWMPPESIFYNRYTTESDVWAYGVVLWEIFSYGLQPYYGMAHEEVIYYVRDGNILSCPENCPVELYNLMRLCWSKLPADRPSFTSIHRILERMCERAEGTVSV

Ax1(h) = target: T4, Ax1(h) (human, UniProt P30530 473-894, limits assumed)
T4 sequence (looked up): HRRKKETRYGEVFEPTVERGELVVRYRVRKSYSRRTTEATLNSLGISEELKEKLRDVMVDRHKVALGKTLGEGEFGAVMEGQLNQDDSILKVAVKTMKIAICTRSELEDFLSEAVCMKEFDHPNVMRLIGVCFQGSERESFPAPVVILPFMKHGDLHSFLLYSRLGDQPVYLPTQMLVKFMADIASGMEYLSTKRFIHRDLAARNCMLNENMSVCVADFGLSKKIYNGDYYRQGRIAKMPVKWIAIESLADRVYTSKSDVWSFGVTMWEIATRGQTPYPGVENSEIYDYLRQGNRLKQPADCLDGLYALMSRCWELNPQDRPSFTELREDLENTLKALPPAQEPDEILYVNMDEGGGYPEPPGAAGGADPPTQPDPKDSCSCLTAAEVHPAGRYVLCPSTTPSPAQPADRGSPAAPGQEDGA

WNK3(h) = WNK3(h) (human, UniProt Q9BYP7 1-434, limits assumed)
TSSK2(h) = target: T5, TSSK2(h) (human, UniProt Q96PF2 1-358)
T5 sequence (looked up): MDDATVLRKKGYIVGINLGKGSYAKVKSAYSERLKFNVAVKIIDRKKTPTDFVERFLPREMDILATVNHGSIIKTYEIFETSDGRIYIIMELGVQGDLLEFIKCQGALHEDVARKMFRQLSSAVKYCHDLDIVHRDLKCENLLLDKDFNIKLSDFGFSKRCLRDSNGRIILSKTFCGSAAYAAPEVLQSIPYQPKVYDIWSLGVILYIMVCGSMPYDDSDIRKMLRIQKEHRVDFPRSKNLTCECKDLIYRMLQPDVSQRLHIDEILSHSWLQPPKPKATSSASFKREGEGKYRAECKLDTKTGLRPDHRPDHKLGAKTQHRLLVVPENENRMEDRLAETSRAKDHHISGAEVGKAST

PKCγ(h) = PKCγ(h) (human, UniProt P05129 1-697)
Rsk3(h) = Rsk3(h) (human, UniProt Q15349 1-733, limits assumed)
JNK1α1(h) = JNK1α1(h) (human, UniProt P45983-2 1-384)
Note: test concentration or dose not given here.

Sequence of LOK(h) (O94804 1-348 limits assumed): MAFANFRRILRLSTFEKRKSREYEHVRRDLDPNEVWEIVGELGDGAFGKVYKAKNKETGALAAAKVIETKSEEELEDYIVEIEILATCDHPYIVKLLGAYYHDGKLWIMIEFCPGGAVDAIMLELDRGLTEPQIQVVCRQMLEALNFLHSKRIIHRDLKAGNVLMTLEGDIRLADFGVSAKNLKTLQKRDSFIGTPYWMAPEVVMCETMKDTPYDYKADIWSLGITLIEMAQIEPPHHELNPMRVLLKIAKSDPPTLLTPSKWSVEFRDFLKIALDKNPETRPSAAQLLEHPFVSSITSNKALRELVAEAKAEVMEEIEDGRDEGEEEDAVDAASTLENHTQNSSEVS
Sequence of WNK3(h) (Q9BYP7 1-434 limits assumed): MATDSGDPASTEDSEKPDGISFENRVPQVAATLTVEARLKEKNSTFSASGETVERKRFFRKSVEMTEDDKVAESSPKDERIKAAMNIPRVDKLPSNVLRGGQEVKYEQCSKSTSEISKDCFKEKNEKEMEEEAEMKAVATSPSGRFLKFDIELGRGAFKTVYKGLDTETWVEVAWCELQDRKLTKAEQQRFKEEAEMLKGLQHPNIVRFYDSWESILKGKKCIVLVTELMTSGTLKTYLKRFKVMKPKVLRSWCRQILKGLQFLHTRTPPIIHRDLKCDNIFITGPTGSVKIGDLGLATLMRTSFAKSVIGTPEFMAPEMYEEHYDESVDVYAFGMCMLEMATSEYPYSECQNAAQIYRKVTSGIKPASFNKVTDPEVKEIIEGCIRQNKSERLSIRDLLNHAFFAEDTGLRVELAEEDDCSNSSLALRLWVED
Sequence of Hck(h) (P08631 251-518 limits assumed): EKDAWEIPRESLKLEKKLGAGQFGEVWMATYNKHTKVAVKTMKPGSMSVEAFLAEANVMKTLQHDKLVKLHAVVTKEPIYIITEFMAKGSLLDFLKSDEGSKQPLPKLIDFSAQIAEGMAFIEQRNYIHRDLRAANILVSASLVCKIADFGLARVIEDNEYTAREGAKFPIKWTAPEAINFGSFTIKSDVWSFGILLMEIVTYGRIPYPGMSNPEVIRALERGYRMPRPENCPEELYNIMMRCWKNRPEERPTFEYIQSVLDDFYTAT
Sequence of PAK6(h) (Q9NQU5 whole entry): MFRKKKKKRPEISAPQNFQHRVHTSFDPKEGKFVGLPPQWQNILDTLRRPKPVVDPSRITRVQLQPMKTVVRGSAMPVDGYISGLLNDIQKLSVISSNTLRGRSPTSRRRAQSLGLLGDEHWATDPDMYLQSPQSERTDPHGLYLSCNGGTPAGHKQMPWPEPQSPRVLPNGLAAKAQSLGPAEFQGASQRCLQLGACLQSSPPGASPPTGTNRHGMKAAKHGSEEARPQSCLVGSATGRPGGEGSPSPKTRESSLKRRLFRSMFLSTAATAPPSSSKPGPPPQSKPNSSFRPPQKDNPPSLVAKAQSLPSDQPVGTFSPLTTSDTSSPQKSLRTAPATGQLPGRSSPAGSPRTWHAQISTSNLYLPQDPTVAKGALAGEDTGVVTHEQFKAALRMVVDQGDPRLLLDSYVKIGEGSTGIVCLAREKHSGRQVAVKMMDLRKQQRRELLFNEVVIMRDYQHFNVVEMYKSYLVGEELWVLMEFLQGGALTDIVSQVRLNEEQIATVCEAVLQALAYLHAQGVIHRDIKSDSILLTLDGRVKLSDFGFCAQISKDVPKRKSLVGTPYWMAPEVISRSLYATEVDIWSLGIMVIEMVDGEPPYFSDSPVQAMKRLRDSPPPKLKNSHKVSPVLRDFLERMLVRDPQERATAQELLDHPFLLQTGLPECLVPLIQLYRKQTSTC
Sequence of Rsk3(h) (Q15349 whole entry): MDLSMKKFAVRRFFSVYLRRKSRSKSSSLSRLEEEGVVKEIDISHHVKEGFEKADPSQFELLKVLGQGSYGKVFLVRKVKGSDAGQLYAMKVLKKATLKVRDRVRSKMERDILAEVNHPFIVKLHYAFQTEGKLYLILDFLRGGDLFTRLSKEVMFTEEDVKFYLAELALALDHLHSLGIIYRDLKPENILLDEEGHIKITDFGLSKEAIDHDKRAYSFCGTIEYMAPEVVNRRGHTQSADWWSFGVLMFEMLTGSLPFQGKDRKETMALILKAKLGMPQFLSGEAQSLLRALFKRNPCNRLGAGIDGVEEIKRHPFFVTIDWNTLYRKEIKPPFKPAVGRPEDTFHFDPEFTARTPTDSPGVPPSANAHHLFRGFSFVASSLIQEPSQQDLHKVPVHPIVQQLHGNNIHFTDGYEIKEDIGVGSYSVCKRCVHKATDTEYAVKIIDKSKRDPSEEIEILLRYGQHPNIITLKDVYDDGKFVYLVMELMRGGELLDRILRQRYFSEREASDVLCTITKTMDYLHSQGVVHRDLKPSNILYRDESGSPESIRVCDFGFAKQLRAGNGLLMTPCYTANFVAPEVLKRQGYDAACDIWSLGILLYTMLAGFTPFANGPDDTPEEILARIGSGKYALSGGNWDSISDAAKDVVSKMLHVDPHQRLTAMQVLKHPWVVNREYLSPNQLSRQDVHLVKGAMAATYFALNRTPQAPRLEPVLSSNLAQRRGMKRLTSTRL
Sequence of PASK(h) (Q96RG2 879-1323 limits assumed): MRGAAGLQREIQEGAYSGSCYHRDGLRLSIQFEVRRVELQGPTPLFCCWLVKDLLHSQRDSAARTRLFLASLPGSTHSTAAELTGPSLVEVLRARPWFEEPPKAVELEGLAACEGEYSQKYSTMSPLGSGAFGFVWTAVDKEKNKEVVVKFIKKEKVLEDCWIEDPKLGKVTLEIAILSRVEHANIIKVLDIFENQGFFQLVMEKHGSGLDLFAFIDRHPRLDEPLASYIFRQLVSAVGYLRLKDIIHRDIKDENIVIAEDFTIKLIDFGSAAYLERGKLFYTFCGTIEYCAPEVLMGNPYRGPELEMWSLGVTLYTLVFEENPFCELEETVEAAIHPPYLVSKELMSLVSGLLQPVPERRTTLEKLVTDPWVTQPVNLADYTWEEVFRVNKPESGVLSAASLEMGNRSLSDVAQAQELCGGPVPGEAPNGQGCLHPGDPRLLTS
Sequence of JNK1α1(h) (P45983 other isoform, or with tags, fused parts or gaps limits assumed): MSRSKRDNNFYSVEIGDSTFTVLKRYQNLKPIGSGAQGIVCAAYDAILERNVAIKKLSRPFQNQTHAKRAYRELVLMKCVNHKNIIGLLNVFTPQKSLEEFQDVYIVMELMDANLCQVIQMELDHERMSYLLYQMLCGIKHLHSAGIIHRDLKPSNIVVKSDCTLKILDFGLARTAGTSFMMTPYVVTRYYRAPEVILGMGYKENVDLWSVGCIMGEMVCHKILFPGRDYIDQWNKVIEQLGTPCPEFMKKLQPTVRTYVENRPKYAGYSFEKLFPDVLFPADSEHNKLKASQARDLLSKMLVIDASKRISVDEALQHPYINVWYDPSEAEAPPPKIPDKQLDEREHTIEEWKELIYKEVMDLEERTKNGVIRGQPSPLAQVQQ

% activity (Hck(h)): 72%
% activity (Src(1-530)(h)): 23%
% activity (PAK6(h)): 104%
% activity (PASK(h)): 29%
% activity (LOK(h)): 37%
% activity (LKB1(h)): 101%
% activity (PDK1(h)): 135%
% activity (MuSK(h)): 93%
% activity (Ax1(h)): 52%
% activity (WNK3(h)): 77%
% activity (TSSK2(h)): 98%
% activity (PKCγ(h)): 89%
% activity (Rsk3(h)): 76%
% activity (JNK1α1(h)): 97%
B1: MMI-0300 (peptide)
peptide: FAKLAARLYRKALARQLGVAA

% activity (Hck(h)): 72%
% activity (Src(1-530)(h)): 19%
% activity (PAK6(h)): 100%
% activity (PASK(h)): 28%
% activity (LOK(h)): 18%
% activity (LKB1(h)): 89%
% activity (PDK1(h)): 159%
% activity (MuSK(h)): 93%
% activity (Ax1(h)): 41%
% activity (WNK3(h)): 74%
% activity (TSSK2(h)): 94%
% activity (PKCγ(h)): 79%
% activity (Rsk3(h)): 71%
% activity (JNK1α1(h)): 98%
B2: MMI-0400 (peptide)
peptide: KAFAKLAARLYRKALARQLGVAA
